{"source": "patent US20210171647A1", "about": "(WUXI BIOLOGICS SHANGHAI, published 2021)", "binders": {"B1": {"name": "1.134.9-u1-IgG1L (antibody, V domains shown)", "VH": "QVQLQESGPGLVKPSGTLSLTCAVSGGSISSYNWWSWVRQPPGKGLEWIGEIYHGGNTNYNPSLKSRVTMSVDNSKNQFSLKLSSVTAADTAVYYCARAPGDWGGSPYFDFWGQGTLVTVSS", "VL": "SSELTQDPAVSVALGQTVRITCQGDNLRTYYASWYQQKPGQAPILLIYGRNKRPSGIPDRFSGSSSGNTASLTITGAQAEDEAAYYCNSRDSSGNPVVFGGGTKLTVL", "notes": "fully human IgG1, lambda"}}, "experiment_in_all_cases": "ELISA, antibody coated, OX40-ECD.His mutant supernatant; relative to silent alanine substitutions;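 further: captured OX40 mutant protein detected with HRP-labelled anti-His antibody, absorbance read-out, scaled to the mean signal of control mutants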", "key": {"human OX40-ECD.His P48A": {"target": "T1, human OX40-ECD.His P48A (human, UniProt P43489 29-214)", "T1 construct": "extracellular domain; not shown: C-terminal His-tag", "T1 sequence (looked up)": "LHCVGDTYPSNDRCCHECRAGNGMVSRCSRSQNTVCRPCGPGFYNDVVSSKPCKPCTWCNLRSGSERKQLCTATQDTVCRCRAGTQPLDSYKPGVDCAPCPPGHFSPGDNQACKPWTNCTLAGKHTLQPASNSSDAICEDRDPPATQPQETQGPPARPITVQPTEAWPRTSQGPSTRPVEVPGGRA"}, "human OX40-ECD.His Q139A": {"target": "T2, human OX40-ECD.His Q139A (human, UniProt P43489 29-214)", "T2 construct": "extracellular domain; not shown: C-terminal His-tag", "T2 sequence (looked up)": "T1 sequence (looked up) with A20P, Q111A"}, "human OX40-ECD.His A140G": {"target": "T3, human OX40-ECD.His A140G (human, UniProt P43489 29-214)", "T3 construct": "extracellular domain; not shown: C-terminal His-tag", "T3 sequence (looked up)": "T1 sequence (looked up) with A20P, A112G"}, "human OX40-ECD.His N160A": {"target": "T4, human OX40-ECD.His N160A (human, UniProt P43489 29-214)", "T4 construct": "extracellular domain; not shown: C-terminal His-tag", "T4 sequence (looked up)": "T1 sequence (looked up) with A20P, N132A"}, "human OX40-ECD.His T105A": {"target": "T5, human OX40-ECD.His T105A (human, UniProt P43489 29-214)", "T5 construct": "extracellular domain; not shown: C-terminal His-tag", "T5 sequence (looked up)": "T1 sequence (looked up) with A20P, T77A"}, "human OX40-ECD.His R47A": {"target": "T6, human OX40-ECD.His R47A (human, UniProt P43489 29-214)", "T6 construct": "extracellular domain; not shown: C-terminal His-tag", "T6 sequence (looked up)": "T1 sequence (looked up) with R19A, A20P"}, "human OX40-ECD.His T154A": {"target": "T7, human OX40-ECD.His T154A (human, UniProt P43489 29-214)", "T7 construct": "extracellular domain; not shown: C-terminal His-tag", "T7 sequence (looked up)": "T1 sequence (looked up) with A20P, T126A"}, "human OX40-ECD.His H30A": {"target": "T8, human OX40-ECD.His H30A (human, UniProt P43489 29-214)", "T8 construct": "extracellular domain; not shown: C-terminal His-tag", "T8 sequence (looked up)": "T1 sequence (looked up) with H2A, A20P"}, "human OX40-ECD.His P171A": {"target": "T9, human OX40-ECD.His P171A (human, UniProt P43489 29-214)", "T9 construct": "extracellular domain; not shown: C-terminal His-tag", "T9 sequence (looked up)": "T1 sequence (looked up) with A20P, P143A"}, "human OX40-ECD.His N138A": {"target": "T10, human OX40-ECD.His N138A (human, UniProt P43489 29-214)", "T10 construct": "extracellular domain; not shown: C-terminal His-tag", "T10 sequence (looked up)": "T1 sequence (looked up) with A20P, N110A"}}, "note": "Where a chain is given by its changes, count along the chain named.", "data": [{"binder": "B1", "values": [{"measurement": "Fold Change", "setting": "human OX40-ECD.His P48A", "result": 0.981}, {"measurement": "Fold Change", "setting": "human OX40-ECD.His Q139A", "result": 0.999}, {"measurement": "Fold Change", "setting": "human OX40-ECD.His A140G", "result": 0.969}, {"measurement": "Fold Change", "setting": "human OX40-ECD.His N160A", "result": 0.992}, {"measurement": "Fold Change", "setting": "human OX40-ECD.His T105A", "result": 0.787}, {"measurement": "Fold Change", "setting": "human OX40-ECD.His R47A", "result": 1}, {"measurement": "Fold Change", "setting": "human OX40-ECD.His T154A", "result": 0.843}, {"measurement": "Fold Change", "setting": "human OX40-ECD.His H30A", "result": 1.01}, {"measurement": "Fold Change", "setting": "human OX40-ECD.His P171A", "result": 1.02}, {"measurement": "Fold Change", "setting": "human OX40-ECD.His N138A", "result": 0.73}]}]}
